In the RNAGym collection of RNA variant scans (doi:10.7554/elife.90254):

B1: LINE1-full (parent)
chain: UACGUAGGUGGUUUUCCCCUGAUAGUGCUAAGGGGGCCUGGAAGUUUGGACUGGGCAGAGCUCAACACAGCGUGGCAAAGUGGCUGUGGCUAGACUGCCUCUCUGGAUUCCUCGUCACUCAGCAGGGCAUCUCUGAGAGAAAUGCC

Variants of: B1
Assay: self-cleavage, relative activity (ratio to wild type); higher = more cleavage; in vitro, sequencing; the parent is a self-cleaving ribozyme
UACGUAGGUGGUUUUCCCCUGAUAGUGCUAAGGGGGCCUGGAAGUCUGGACUGGGCAGAGCUCAACACGGCGUGGCAAAGUGGCUGUGGCUAGACUGCCUCUCUGGAUUCCUCGUCACUCAGCAGGGCAUCUCUGAGAGAAAUGCC [U46C A69G] gave a self-cleavage of 0.85. UACGUAGGUGGUUUUCCCCUGAUAGUGCUAAGGGGGCCUGGAAGUCUGGACUGGGCAGAGCUCAACACUGCGUGGCAAAGUGGCUGUGGCUAGACUGCCUCUCUGGAUUCCUCGUCACUCAGCAGGGCAUCUCUGAGAGAAAUGCC [U46C A69U] showed a self-cleavage of 0.07. With UACGUAGGUGGUUUUCCCCUGAUAGUGCUAAGGGGGCCUGGAAGUCUGGACUGGGAAGAGCUCAACACAGCGUGGCAAAGUGGCUGUGGCUAGACUGCCUCUCUGGAUUCCUCGUCACUCAGCAGGGCAUCUCUGAGAGAAAUGCC [U46C C56A] the self-cleavage was 0.28. Work on UACGUAGGUGGUUUUCCCCUGAUAGUGCUAAGGGGGCCUGGAAGUCUGGACUGGGCAGAGCUCAACACAGCGUGGCAAAGUGGCUGUGGCUAGACUGCCUCUCUGGAUUCAUCGUCACUCAGCAGGGCAUCUCUGAGAGAAAUGCC [U46C C111A] yielded a self-cleavage of 1.17. Variant UACGUAGGUGGUUUUCCCCUGAUAGUGCUAAGGGGGCCUGGAAGUCUGGACUGGGCAGAGCUCAACACAGCGUGGCAAAGUGGCUGUGGCUAGACUGCCUCUCUGGAUUCUUCGUCACUCAGCAGGGCAUCUCUGAGAGAAAUGCC [U46C C111U] has a self-cleavage of 1.24. UACGUAGGUGGUUUUCCCCUGAUAGUGCUAAGGGGGCCUGGAAGUCUGGACUGGGCAGAGCUCAACACAGCGUGGCAAAGUGGCUGUGGCUAGACUGCCUCUCUGGAUUCCUCGUCACUCAGCAGGGCAUCUCUGAGAGAGAUGCC [U46C A141G] gave a self-cleavage of 1.41. With UACGUAGGUGGUUUUCCCCUGAUAGUGCUAAGGGGGCCUGGAAGUCUGGACUGAGCAGAGCUCAACACAGCGUGGCAAAGUGGCUGUGGCUAGACUGCCUCUCUGGAUUCCUCGUCACUCAGCAGGGCAUCUCUGAGAGAAAUGCC [U46C G54A] the self-cleavage was 1.21. For UACGUAGGUGGUUUUCCCCUGAUAGUGCUAAGGGGGCCUGGAAGUCUGGAAUGGGCAGAGCUCAACACAGCGUGGCAAAGUGGCUGUGGCUAGACUGCCUCUCUGGAUUCCUCGUCACUCAGCAGGGCAUCUCUGAGAGAAAUGCC [U46C C51A], the self-cleavage was 1.52. With UACGUAGGUGGUUUUCCCCUGAUAGUGCUAAGGGGGCCUGGAAGUCUGGACUGGGCAGAGCUCAACACAGCGUGGCAAAGUGGCUGUGGCUAGACUGCCUCUCUGGAUUCCUCGUCACUCAGCAGGGCAUCUCUGAGAGAAAUGUC [U46C C145U] the self-cleavage was 1.58. In the case of UACGUAGGUGGUUUUCCCCUGAUAGUGCUAAGGGGGCCUGGAAGUCUGGACUGGGCAGAGCUCAACACAGCGUGGCAAAGUGGCUGUGGCUAGACUGCCUCUCUGGAUUCCUCGUCACUCUGCAGGGCAUCUCUGAGAGAAAUGCC [U46C A121U], the self-cleavage is reported as 1.25. In the case of UACGUAGGUGGUUUUCCCCUGAUAGUGCUAAGGGGGCCUGGAAGUCUGGACUGGGCAGAGCUCAACACAGCGUGGCAAAGUGGCUGUGGCUAAACUGCCUCUCUGGAUUCCUCGUCACUCAGCAGGGCAUCUCUGAGAGAAAUGCC [U46C G93A], the self-cleavage is reported as 0.07. In the case of UACGUAGGUGGUUUUCCCCUGAUAGUGCUAAGGGGGCCUGGAAGUCUGGACUGGGCAGAGCUCAACACAGCGUGGCAAAGUGGCUGUGGCUAGACUGCCUCUCUGGUUUCCUCGUCACUCAGCAGGGCAUCUCUGAGAGAAAUGCC [U46C A107U], the self-cleavage is reported as 1.53. Work on UACGUAGGUGGUUUUCCCCUGAUAGUGCUAAGGGGGCCUGGAAGUCUGGACUGGGCAGAGCUCAACACAGCGUGGCAAAGUGGCUGUGGCUAGACUGCCUCUCUGGGUUCCUCGUCACUCAGCAGGGCAUCUCUGAGAGAAAUGCC [U46C A107G] yielded a self-cleavage of 1.06. UACGUAGGUGGUUUUCCCCUGAUAGUGCUAAGGGGGCCUGGAAGUCUGGACUGGGCAGAGCUCAACACAGCGUGGCAAAGUGGCUGUGGCUAGACUGCCUCUCUGGAUUCCUCGUCACUCAGCAGGGCAUCUCUGAGGGAAAUGCC [U46C A138G] gave a self-cleavage of 1.29. In the case of UACGUAGGUGGUUUUCCCCUGAUAGUGCUAAGGGGGCCUGGAAGUCUGGACUGGGCAGAGCUCAACACAGCGUGGCAAAGUGGCUGUGGCUAGACUGCCUCUCUGGAUUCCUCGUCACUCAGCAGGGCAUCUCUGAGCGAAAUGCC [U46C A138C], the self-cleavage is reported as 0. UACGUAGGUGGUUUUCCCCUGAUAGUGCUAAGGGGGCCUGGAAGUCUGGACUGGGCAGAGCUCAACACAGCGUGGCAAAGUGGCUGUGGCUAGACUGCCUCUCUGGAUUCCUCGUCACUCAGCAGGGCAUCUCUGAGAUAAAUGCC [U46C G139U] showed a self-cleavage of 1.7. With UACGUAGGUGGUUUUCCCCUGAUAGUGCUAAGGGGGCCUGGAAGUCUGGACUGGGCAGAGCUCAACACAGCGUGGCAUAGUGGCUGUGGCUAGACUGCCUCUCUGGAUUCCUCGUCACUCAGCAGGGCAUCUCUGAGAGAAAUGCC [U46C A78U] the self-cleavage was 1.85. Variant UACGUAGGUGGUUUUCCCCUGAUAGUGCUAAGGGGGCCUGGAAGUCUGGACUGGGCAGAGCUCAACACAGCGUGGCAAAGUGGCUGUGGCUAGACUGCCUUUCUGGAUUCCUCGUCACUCAGCAGGGCAUCUCUGAGAGAAAUGCC [U46C C101U] has a self-cleavage of 2.71. In the case of UACGUAGGUGGUUUUCCCCUGAUAGUGCUAAGGGGGCCUGGAAGUCUGGACUGGGCAGAGCUCAACACAGCGUGGCAAAGUGGCUGUGGCUAGACUGCCUCUCUGGAUUCCUCGUCCCUCAGCAGGGCAUCUCUGAGAGAAAUGCC [U46C A117C], the self-cleavage is reported as 2.44. Variant UACGUAGGUGGUUUUCCCCUGAUAGUGCUAAGGGGGCCUGGAAGUCUGGACUGGGCAGAGCUCAACACAGCGUGGCAAAGUGGCUGUGACUAGACUGCCUCUCUGGAUUCCUCGUCACUCAGCAGGGCAUCUCUGAGAGAAAUGCC [U46C G89A] has a self-cleavage of 0.04.
